Data taken from US20170355771A1 (Biogen, published 2017).
Where a chain is given by its changes, count along the chain named.

B1: mouse Fab (34D10) (Fab, V domains shown)
VH: EVKLVESGGGLVKPGGSLKLSCAASGFTFSAYAMSWVRQTPEKRLEWVASISSGGTTYYPDSVKRRFTISRDNARNILYLQMSSLRSEDTAMYYCTRGGDYGYALDYWGQGTSVTVSS
VL: ENVLTQSPAIMSASLGEKVTMSCRASSSVNYMYWYQQKSDASPKLWIYYTSNLAPGVPARFSGSGSGNSYSLTISSMEGEDAATYYCQQFSSSPWTFGGGTKLEIK
notes: Fab; also called mouse 34D10 Fab
B2: humanized 34D10 Fab L0/H2 (Fab, V domains shown)
VH: EVQLVESGGGLVKPGGSLRLSCAASGFTFSAYAMSWVRQAPGKGLVWVASISSGGTTYYPDSVKRQFTISRDNAKNTLYLQMNSLRAEDTAVYYCTRGGDYGYALDYWGQGTLVTVSS
VL: EIVMTQSPATLSVSPGERATLSCRASSSVNYMYWYQQKPGQAPRLLIYYTSNLAPGIPARFSGSGSGTEFTLTISSLQSEDFAVYYCQQFSSSPWTFGQGTKVEIK
notes: Fab; also called VL0/VH2
B3: humanized 34D10 Fab L1/H3 (Fab, V domains shown)
VH: B2 VH with E6Q, G16E, V46E, Q66R
VL: B2 VL with M4L, I57V
notes: Fab; only variable domains are tied by name; also called VL1/VH3
B4: humanized 34D10 Fab L0/H5 (Fab, V domains shown)
VH: B2 VH with Q3K, V46E, Q66R, K75R
VL: B2 VL
notes: Fab; also called VL0/VH5
B5: affinity matured h34D10 Fab VH120/VL0 (Fab, V domains shown)
VH: B2 VH with K13E
VL: B2 VL
notes: Yeast-purified Fab
B6: affinity matured h34D10 Fab VH121/VL0 (Fab, V domains shown)
VH: B2 VH with K43E
VL: B2 VL
notes: Yeast-purified Fab

Target: T1, biotinylated human GPIIb/IIIa ectodomain protein (human, UniProt P08514 32-993; P05106 27-718, biotinylated (site not stated))
T1 construct: extracellular domain; also called purified GPIIb/IIIa
T1 sequence (P08514 32-993, chain 1 of 2): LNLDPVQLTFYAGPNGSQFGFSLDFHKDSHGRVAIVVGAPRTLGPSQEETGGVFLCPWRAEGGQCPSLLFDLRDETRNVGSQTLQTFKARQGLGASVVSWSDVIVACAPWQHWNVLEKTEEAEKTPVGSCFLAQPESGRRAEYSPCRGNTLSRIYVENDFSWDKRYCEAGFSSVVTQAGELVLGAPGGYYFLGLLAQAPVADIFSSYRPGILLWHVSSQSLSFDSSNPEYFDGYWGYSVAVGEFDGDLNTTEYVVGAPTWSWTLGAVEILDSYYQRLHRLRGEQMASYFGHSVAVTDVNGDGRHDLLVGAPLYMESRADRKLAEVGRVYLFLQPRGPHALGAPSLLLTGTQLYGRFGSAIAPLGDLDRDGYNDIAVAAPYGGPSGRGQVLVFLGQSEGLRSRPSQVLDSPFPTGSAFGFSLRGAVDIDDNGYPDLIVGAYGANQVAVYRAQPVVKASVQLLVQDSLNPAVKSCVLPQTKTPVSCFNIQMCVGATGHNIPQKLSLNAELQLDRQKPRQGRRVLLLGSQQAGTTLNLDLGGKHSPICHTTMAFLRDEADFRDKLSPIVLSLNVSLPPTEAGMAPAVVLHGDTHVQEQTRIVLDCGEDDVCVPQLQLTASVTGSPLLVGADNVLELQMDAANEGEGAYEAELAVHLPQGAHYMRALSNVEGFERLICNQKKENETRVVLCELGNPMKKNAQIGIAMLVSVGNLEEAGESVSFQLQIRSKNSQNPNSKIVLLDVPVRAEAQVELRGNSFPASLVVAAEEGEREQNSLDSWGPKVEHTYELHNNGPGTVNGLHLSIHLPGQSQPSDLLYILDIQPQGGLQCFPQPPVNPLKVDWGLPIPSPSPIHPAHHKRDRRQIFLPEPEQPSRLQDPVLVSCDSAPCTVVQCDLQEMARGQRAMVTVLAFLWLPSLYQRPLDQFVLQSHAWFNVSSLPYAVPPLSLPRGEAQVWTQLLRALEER
T1 sequence (P05106 27-718, chain 2 of 2): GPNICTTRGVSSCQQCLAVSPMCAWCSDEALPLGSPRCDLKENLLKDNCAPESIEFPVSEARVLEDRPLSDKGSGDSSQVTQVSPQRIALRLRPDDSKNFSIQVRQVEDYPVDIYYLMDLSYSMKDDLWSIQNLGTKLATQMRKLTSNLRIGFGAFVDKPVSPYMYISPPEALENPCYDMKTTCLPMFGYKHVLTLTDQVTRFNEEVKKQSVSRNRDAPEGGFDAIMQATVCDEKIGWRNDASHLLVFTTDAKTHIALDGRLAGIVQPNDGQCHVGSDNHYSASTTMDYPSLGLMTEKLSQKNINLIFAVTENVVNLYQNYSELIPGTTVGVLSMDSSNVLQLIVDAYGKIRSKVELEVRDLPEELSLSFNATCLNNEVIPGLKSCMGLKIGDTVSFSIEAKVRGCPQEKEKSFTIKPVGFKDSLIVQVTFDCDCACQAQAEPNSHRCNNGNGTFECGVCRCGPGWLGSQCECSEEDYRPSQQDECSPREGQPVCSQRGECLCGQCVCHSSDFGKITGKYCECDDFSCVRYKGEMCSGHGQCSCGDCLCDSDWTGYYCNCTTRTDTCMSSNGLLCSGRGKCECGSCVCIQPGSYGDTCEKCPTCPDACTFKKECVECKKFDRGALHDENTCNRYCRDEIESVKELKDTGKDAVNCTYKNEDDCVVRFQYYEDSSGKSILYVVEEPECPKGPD
Assay: SPR, biotinylated GPIIb/IIIa ectodomain on streptavidin chip, Fab as analyte, 1:1 model

Kd [nM]	Binder
2.8	B1
2.8	B2
110	B3
5.3	B4

Target: T2, GPIIb/IIIa (SEQ ID NOs: 23 and 24) (human, UniProt P08514 32-994; P05106 27-716)
T2 construct: also called GPIIb/IIIa complex
T2 sequence (P08514 32-994 limits assumed, chain 1 of 2): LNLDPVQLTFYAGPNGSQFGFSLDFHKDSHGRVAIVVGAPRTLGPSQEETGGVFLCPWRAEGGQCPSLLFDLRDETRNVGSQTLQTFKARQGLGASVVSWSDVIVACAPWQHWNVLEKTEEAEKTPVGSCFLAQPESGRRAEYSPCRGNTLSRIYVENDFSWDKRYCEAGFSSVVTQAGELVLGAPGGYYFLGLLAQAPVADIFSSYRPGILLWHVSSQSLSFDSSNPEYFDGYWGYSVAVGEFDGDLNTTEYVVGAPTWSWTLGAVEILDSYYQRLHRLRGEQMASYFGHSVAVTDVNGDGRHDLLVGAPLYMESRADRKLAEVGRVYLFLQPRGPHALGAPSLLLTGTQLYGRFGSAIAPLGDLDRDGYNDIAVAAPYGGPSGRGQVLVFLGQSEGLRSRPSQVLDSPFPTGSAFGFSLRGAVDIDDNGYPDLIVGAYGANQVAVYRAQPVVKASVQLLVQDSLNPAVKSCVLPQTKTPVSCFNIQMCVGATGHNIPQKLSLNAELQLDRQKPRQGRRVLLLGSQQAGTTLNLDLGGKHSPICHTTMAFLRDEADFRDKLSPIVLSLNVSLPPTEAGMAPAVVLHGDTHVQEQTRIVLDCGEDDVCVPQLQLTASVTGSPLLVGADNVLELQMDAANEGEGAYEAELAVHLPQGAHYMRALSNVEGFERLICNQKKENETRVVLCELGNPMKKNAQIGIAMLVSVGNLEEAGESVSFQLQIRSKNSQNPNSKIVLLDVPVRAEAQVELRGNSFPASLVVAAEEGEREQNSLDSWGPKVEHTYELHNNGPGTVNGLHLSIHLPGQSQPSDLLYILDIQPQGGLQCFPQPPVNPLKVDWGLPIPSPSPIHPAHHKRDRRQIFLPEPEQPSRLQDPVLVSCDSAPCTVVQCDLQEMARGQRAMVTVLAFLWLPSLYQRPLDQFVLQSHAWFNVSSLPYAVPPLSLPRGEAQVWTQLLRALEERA
T2 sequence (P05106 27-716 limits assumed, chain 2 of 2): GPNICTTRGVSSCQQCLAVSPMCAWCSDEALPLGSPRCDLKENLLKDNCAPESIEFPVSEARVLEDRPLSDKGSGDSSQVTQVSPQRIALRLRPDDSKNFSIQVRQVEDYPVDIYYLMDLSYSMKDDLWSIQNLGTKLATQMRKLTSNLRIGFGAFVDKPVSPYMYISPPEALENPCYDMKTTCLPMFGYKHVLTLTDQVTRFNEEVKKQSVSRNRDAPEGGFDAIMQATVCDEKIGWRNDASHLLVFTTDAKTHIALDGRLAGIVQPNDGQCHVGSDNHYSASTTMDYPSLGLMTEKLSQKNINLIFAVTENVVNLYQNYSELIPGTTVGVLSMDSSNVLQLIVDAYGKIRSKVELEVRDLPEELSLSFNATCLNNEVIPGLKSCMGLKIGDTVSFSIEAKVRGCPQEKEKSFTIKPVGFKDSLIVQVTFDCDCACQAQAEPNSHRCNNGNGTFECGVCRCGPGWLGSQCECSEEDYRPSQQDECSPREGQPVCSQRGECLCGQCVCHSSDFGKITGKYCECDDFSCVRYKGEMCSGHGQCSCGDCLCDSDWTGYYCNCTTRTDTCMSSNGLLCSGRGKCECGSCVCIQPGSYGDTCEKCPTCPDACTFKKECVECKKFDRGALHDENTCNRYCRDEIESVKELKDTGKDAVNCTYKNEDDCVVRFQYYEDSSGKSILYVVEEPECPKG
Assay: Bio-Layer Interferometry (OctetRed), monovalent format, yeast-purified Fab; apparent monovalent affinity
Experimental: (§1) BLI was performed on the OctetRed94 instrument, manufactured by ForteBio, according to standard procedures.

Kd [nM]	Binder
155	B2
240	B5
230	B6

Target: T2, GPIIb/IIIa (SEQ ID NOs: 23 and 24)
Assay: Bio-Layer Interferometry (OctetRed), monovalent format, yeast-purified Fab; apparent dissociation rate Kdis
Experimental: as §1

koff [s⁻¹]	Binder
0.0563	B2
0.0492	B5
0.0494	B6
